Source: the supplement of paper PMC9170038

Tests used:
MS2 coat protein [1] = assay: apparent KD of MS2 coat protein; designed switch direction (-1 OFF switch, 1 ON switch): 1; higher = weaker reporter binding
Method in brief: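 Transcription of designed RNA switches on Illumina chips was done by stalled E. coli RNA polymerase. SNAP-549-labelled MS2 coat protein was then titrated in doubling steps from 0.7 or 1.5 nM to 3 µM, with steps of 0.8–1.5 h at the lowest and 10–20 min at the highest concentration. The per-design median over clusters of curve-fitted normalised fluorescence is reported as apparent KD.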

MS2 coat protein [2] = assay: apparent KD of MS2 coat protein; higher = weaker reporter binding; settings: Eterna round: R107
Method in brief: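 For every design, apparent KD is the median of normalised binding-curve fits from its clusters. The RNA switches were transcribed on-chip from Illumina sequencing clusters and titrated with SNAP-549-labelled MS2 coat protein (twofold steps, 0.7 or 1.5 nM to 3 µM; 0.8–1.5 h to 10–20 min per step). Titrations used 100 mM Tris-HCl pH 7.5, 80 mM KCl, 4 mM MgCl2, without or with constant ligand.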

[3] = input ligand: microRNA oligo, concentration not stated
[4] = Eterna round: R95, input ligand: FMN 200 uM
[5] = Eterna round: R95, input ligand: microRNA oligo, concentration not stated
[6] = Eterna round: R95, input ligand: none
[7] = input ligand: theophylline 20 uM
[8] = input ligand: theophylline 2 mM
[9] = input ligand: tryptophan 2.4 mM

| Sequence | apparent KD of MS2 coat protein (MS2 coat protein [1]; [3]) [nM] | apparent KD of MS2 coat protein (MS2 coat protein [2]; input ligand: arginine 13.2 mM) [nM] | apparent KD of MS2 coat protein (MS2 coat protein [2]; input ligand: none) [nM] | apparent KD of MS2 coat protein (MS2 coat protein [2]; [7]) [nM] | apparent KD of MS2 coat protein (MS2 coat protein [2]; [8]) [nM] | apparent KD of MS2 coat protein (MS2 coat protein [2]; [9]) [nM] | also measured |
| --- | --- | --- | --- | --- | --- | --- | --- |
| AAAAAACAUGAGGAUCACCCAUGUCAAAAGACAUGAGGAUAUGUACAGACUUCGGUCUGUACAGAAGGCAUGAAAA [SS1 - 1011] (Eterna round: R96, puzzle: Same State 1) | 359 |  |  |  |  |  |  |
| AAAAAACAUGAGGAUCACCCAUGUCAAAAGACAUGAGGAUAUGUACAGACUUCGGUCUGUACAGAAGGCAUGAAAA [salish99_ss1_r3_093] (Eterna round: R96, puzzle: Same State 1) | 359 |  |  |  |  |  |  |
| AAAAAACAUGAGGAUCACCCAUGUCAAAAGACAUGAGGAUAUGUACAGACUUCGGUCUGUACAGAAGGCAUGAAAA [salish99_ss1_r3_093] (puzzle: Same State 1) |  |  |  |  |  |  | apparent KD of MS2 coat protein (MS2 coat protein [1]; [4]): 32.2 nM; apparent KD of MS2 coat protein (MS2 coat protein [1]; [5]): 570 nM; apparent KD of MS2 coat protein (MS2 coat protein [1]; [6]): 528 nM |
| AAAAGAAACGCAGGAUAUGCACAUGAGGAUCACCCAUGUCCCACGGGCUCGACCGAGCCUGUGAAGCAGAAGGGUGUAAGAAAA [Erleusor] (Eterna round: R96, puzzle: Same State NG 2) | 208 |  |  |  |  |  | apparent KD of MS2 coat protein (MS2 coat protein [1]; input ligand: FMN 200 uM): 54.1 nM; apparent KD of MS2 coat protein (MS2 coat protein [1]; input ligand: none): 74.7 nM |
| AAAAGACAUGAGGAUCACCCAUGUAAAAACAUAGGAGGAUAUGUCAUGAAAAAAGACUUGACAGAAGGCCUUUGUC [SS1 - 49] (Eterna round: R96, puzzle: Same State 1) | 156 |  |  |  |  |  |  |
| AAAAGACAUGAGGAUCACCCAUGUAUGAAAAGUACAGGAUAUCACGAGCUAAGAAGCGAGUGAGAAGGGUGAAAAU [Sogedi] (puzzle: Same State 1) |  |  |  |  |  |  | apparent KD of MS2 coat protein (MS2 coat protein [1]; [4]): 519 nM; apparent KD of MS2 coat protein (MS2 coat protein [1]; [5]): 69.1 nM; apparent KD of MS2 coat protein (MS2 coat protein [1]; [6]): 109 nM |
| AAAAGACAUGAGGAUCACCCAUGUGAAAACAUACAAGGAUAUGUGUGGAAACCGUACUAUACAGAAGGUGUAUGUC [SS1 - 85] (Eterna round: R96, puzzle: Same State 1) | 25.1 |  |  |  |  |  |  |
| AAAAUGGUAUGUUACAUGAGGAUCACCCAUGUACGGUCAUCUGAGGAUAUGGUGAUGUAGAAGAAUCAGAAGGCAGACAUUUAA [AK SSNG3-V2-26] (Eterna round: R96, puzzle: Same State NG 3) | 19.8 |  |  |  |  |  | apparent KD of MS2 coat protein (MS2 coat protein [1]; input ligand: FMN 200 uM): 27.9 nM; apparent KD of MS2 coat protein (MS2 coat protein [1]; input ligand: none): 32.3 nM |
| AAAAUGUGAUGUCACAUGAGGAUCACCCAUGUGGUGACAACUAAGGAUAUAACGAACCAAGGCGAUUAGAAGGUAGGAUCACAA [AK SSNG3-V2-17] (Eterna round: R96, puzzle: Same State NG 3) | 120 |  |  |  |  |  | apparent KD of MS2 coat protein (MS2 coat protein [1]; input ligand: FMN 200 uM): 102 nM; apparent KD of MS2 coat protein (MS2 coat protein [1]; input ligand: none): 207 nM |
| AAACAUGAGCGAGGAUAUACAUGAGGAUCACCCGUAGAAGGCGCAUGUAAAACAACAUGAGGAUCACCCAUGUCAUGUACAUGA [Same State NG1 S1] (Eterna round: R96, puzzle: Same State NG 1) | 55 |  |  |  |  |  | apparent KD of MS2 coat protein (MS2 coat protein [1]; input ligand: FMN 200 uM): 61.5 nM; apparent KD of MS2 coat protein (MS2 coat protein [1]; input ligand: none): 66.9 nM |
| AAAGACAUGAGGAUCACCCAUGUACAGACAAACCAGUCUGCACAGGAUAUCCCGAGGAUAACUCGGGAGAAGGGUGGCCAAAAC [Onveenes] (Eterna round: R96, puzzle: Same State NG 3) | 18.9 |  |  |  |  |  | apparent KD of MS2 coat protein (MS2 coat protein [1]; input ligand: FMN 200 uM): 74.8 nM; apparent KD of MS2 coat protein (MS2 coat protein [1]; input ligand: none): 33.5 nM |
| AAAGCACAUGAGGAUCACCCAUGUGGAAAUAACACAGGAUAUCUGGCCUAAGCUUAGGCGAGAGAAGGGUGACCUA [Beintivequ] (puzzle: Same State 1) |  |  |  |  |  |  | apparent KD of MS2 coat protein (MS2 coat protein [1]; [5]): 65.5 nM |
| AAAGGAUGAUUAUACAUGAGGAUCACCCAUGUAAGUAAUACUAAGGAUAUGUGACUUAAUUGUUUACAGAAGGUAGGUUCAUGA [AK SSNG3-V2-1.1] (Eterna round: R96, puzzle: Same State NG 3) | 230 |  |  |  |  |  | apparent KD of MS2 coat protein (MS2 coat protein [1]; input ligand: FMN 200 uM): 58.8 nM; apparent KD of MS2 coat protein (MS2 coat protein [1]; input ligand: none): 117 nM |
| AAAGUACAUGAGGAUCACCCAUGUAAAAGACUCACAGGAUAUGCUUCUUGUGUACAAGCUGCAGAAGGGUGAAAAG [Oraes] (puzzle: Same State 1) |  |  |  |  |  |  | apparent KD of MS2 coat protein (MS2 coat protein [1]; [4]): 30.8 nM; apparent KD of MS2 coat protein (MS2 coat protein [1]; [5]): 55.9 nM; apparent KD of MS2 coat protein (MS2 coat protein [1]; [6]): 107 nM |
| AAAUCAAGUAAAACAUGAGGAUCACCCAUGUGAGAAGCUUCCAAGGAUAUGGUAUGCAUGGAAACCCAGAAGGUGGUCAAAGCA [Eternabot solution 29] (Eterna round: R96, puzzle: Same State NG 3) | 181 |  |  |  |  |  | apparent KD of MS2 coat protein (MS2 coat protein [1]; input ligand: FMN 200 uM): 247 nM; apparent KD of MS2 coat protein (MS2 coat protein [1]; input ligand: none): 272 nM |
| UGUAUGGAAACAUGAGGAUCACCCAUGUGGCGAGGACCGGUACGGCCGCCACUCGAGCAGCAAGCGUGUAUGACGCUGCUGCAUG [SS-trypA-0] |  | 27.3 | 40.9 | 60.6 | 49.7 | 25.1 |  |
| UGUAUGGACUGAAGGAGCGCCUCAAAAUAACUUGAGGAUCACCCAAGUAAGGCGAAAGCCGGGCAGGUAGGUCGCAGUCCAUACU [ArgBX 3] |  | 24.1 | 10.6 | 28.1 | 15.2 | 12.4 |  |
| UGUAUGGACUGAAGGAGCGGGUUGAUAACCUGAGGAUCAUCCAGGUAAAAGGCGAAAGCCACCCAGGUAGGUCGCAGUCCAUACU |  | 199 |  | 344 | 433 | 322 |  |

| Sequence | apparent KD of MS2 coat protein (MS2 coat protein [1]; [3]) [nM] | apparent KD of MS2 coat protein (MS2 coat protein [2]; input ligand: arginine 13.2 mM) [nM] | apparent KD of MS2 coat protein (MS2 coat protein [2]; input ligand: none) [nM] | apparent KD of MS2 coat protein (MS2 coat protein [2]; [7]) [nM] | apparent KD of MS2 coat protein (MS2 coat protein [2]; [8]) [nM] | apparent KD of MS2 coat protein (MS2 coat protein [2]; [9]) [nM] | also measured |
| --- | --- | --- | --- | --- | --- | --- | --- |
| UGUAUGUGAUCUGAUACCAGAGUGACGCGAAAGCGAUAACCUGAGGAUCACCCUGGUAAACUCCCUUGGCAGCAGAUCGCAUACU |  | 53.7 | 75.3 | 60.2 | 24 | 79.7 |  |
| UGUAUGUGAUCUGAUACCAGUCCAACUGGUAAAACUUGAGGAUCACCCAAGUAAAAUUGGGACCCUUGGCAGCAGAUCGCAUACU |  | 126 | 371 | 360 | 81.7 | 371 |  |
| UGUCAGCGAAAGUUGACAUGUCUUACCGGUCGAGGACCGGUACGGCCGCCACUCGAUCUCUCGCACAUGAGGAUCACCCAUGUCG [SS Tryp A #17] |  | 12.8 |  | 15.4 | 12.8 |  |  |
| UGUGCAUGAGUUGUAAAAGCUCAUGGGCAUCGAGGACCGGUACGGCCGCCACUCGGCUGUACAUGAGGAUCACCCAUGUCAGGGU [#1 Same State - Tryptophan A Attempt #22 (HarryS)] |  | 133 |  | 609 | 1100 |  |  |
| UUACAUGAGGAUCACCCAUGUCAUAAUGAUACCAGAUAGUUAAUGAUCCCUUGGCAGCAUAAUACCUAGACAUUUAAGUCAUAGG [Aa] |  | 59.5 |  | 80 |  | 56.2 |  |
| UUACAUGAGGAUCACCCAUGUCAUACAGAAGGAGCGUCACAUAAGACAGGUAGGUCGCUGUUAUUUAAUACUAUUAUAUCCUCUA [JR_Nu_ExcArginiA_Sub027] |  | 26.9 | 33.7 | 44.9 | 35.2 | 32.8 |  |
| UUAGAUAUGACGGAUACCAGCGUGUUGUAGAACAUGAGGAUCACCCAUGUAGUGAUCGUGCGCCCUUGGCAGCUGGUAUGUUUGG [7.V] |  | 133 |  | 491 |  | 501 |  |
| UUCAGACAUGAGGAUCACCCAUGUACUGAAGGAGCGGAUAAAUAUCCAGGUAGGUCGCAGUAUUGAGGGUCUACUUCCAGUCUUU [Reoruser] |  | 8.42 | 9.48 | 11.9 | 9.47 | 9.82 |  |
| UUCAGCUAGUCGGCCGCCACUACAUGAGGAUCACCCAUGUAAUCCUAACACUGCUUCGGCAGUGGUAGGACCGGGACUAGCUGAG |  | 11.1 |  | 14.3 | 12.2 |  |  |
| UUCAGCUAGUCGGCCGCCACUACAUGAGGAUCACCCAUGUAUCCUAAACACUGCUUCGGCAGUGGUAGGACCGGGACUAGCUGAG |  | 18.1 | 13.9 | 21.6 | 18.3 | 136 |  |
| UUGAUCAUAUAUGAAAACAUAUAUGCAGAAGGAGCGUGAUAAAACACAGGUAGGUCGCUGAAGGGAACAUGAGGAUCACCCAUGU [AstrosSSArgA#3] |  | 30.2 | 27.2 | 39.4 | 34.1 | 26.8 |  |
| UUGUUAUACGGAAGGAGCGUGUAAGAUUAAGAACAUGAGGAUCACCCAUGUUUUAAGGGAACACAGGUAGGUCGCCGUAUAGUGG [11.P] |  | 16.4 | 10 | 13.2 | 11.3 | 14.7 |  |
| UUGUUGUACGGAAGGAGCGUGUAAGAUUAAGAACAUGAGGAUCACCCAUGUUUUAAGGGAACACAGGUAGGUCGCCGUGUGGUGG [11.Q] |  | 14 | 15.1 | 20 | 16.4 | 16.2 |  |
| UUUAUGGAGCUUUUAUUUACGAUUUCUGAUACCAGUGUUUCAUUUCACCCUUGGCAGCAGUGACAUGAGGAUCACCCAUGUAAUA [JR_Nu_SSTheophyA_Sub020] |  | 28.1 |  | 35.1 |  | 27.7 |  |
| UUUAUUAUUGACUCGUUUUGGUAUUAAGAACGAGGACCGGUACGGCCGCCACUCGUGAUAUACAUGAGGAUCACCCAUGUUAGCA [JR_Nu_SSTryptoA_Sub021] |  | 19.4 |  | 19.4 | 18.3 |  |  |
| UUUUUCGCGGGCGAUACCAGCUUGAUCGUACUGGCCUGGUACAUGAGGAUCACCCAUGUAAGCCCUUGGCAGCGCGCGGGAGAAG [Exclusion - Theophylline B Attempt #1 (HarryS)] |  | 11.5 | 12.7 | 14.6 | 20.2 | 15.2 |  |
| UUUUUCGCGUUUGAUACCAGCAGAGUUGUUCUGGUCUGGUACAUGAGGAUCACCCAUGUCUGCCCUUGGCAGCAAACGGGAGAAG [XTheo #30] |  | 14.5 |  | 15 |  | 14.8 |  |
